This note sets out measurements from US20230374140A1 (Memorial Sloan Kettering, published 2023).

The chains are these.
B1: NDC80 Peptide A ALNEQIARL (synthetic peptide) (peptide)
peptide: ALNEQIARL
notes: Free peptide pulsed on T2 cells at 50 µg/ml in the HLA-A*02 stabilization assay; also called unmodified peptide; wild-type peptide
B2: Clone 4 scFv phage clone (scFv, V domains shown)
VH: QVQLQQWGAGLLKPSETLSLTCAVYGGSFSGYYWSWIRQPPGKGLEWIGEINHSGSTNYNPSLKSRVTISVDTSKNQFSLKLSSVTAADTAVYYCARGVPYDYWGQGTLVTVSS
VL: QSVLTQPPSVSAAAGQKVTISCSGSRSNIGSNFVSWYQLLPGTAPRLLIYDNNVRPSGIPDRFSGSKSGSSATLGITGLQTGDEADYYCGTWDSSLIAGVFGGGTKLTVLG
B3: Clone 1 scFv phage clone (Clone 01 scFv) (scFv)
scFv: DIQLTQSPSSLSASVGDRVTITCRASQGIRNDLGWYQQKPGKAPKLMIYAASSLQSGVPSRFSGSGSGTDFTLTISSLQPEDFATYYCLQDYDYPLTFGGGTKLEIKRSRGGGGSGGGGSGGGGSLEMAEVQLVQSGAEVKKPGESLKISCEASGYSFSSNWIAWVRQRPGKGLEWMGIIYPGDSDTRYSPSFQGQVTMSADMSISTAYLQWSSLKASDTAMYYCARFAGPGMWSYGFDYWGQGTLVTVSS
notes: also called phage clone 1
B4: Clone 12 scFv phage clone (scFv, V domains shown)
VH: QVQLQESGPGLVKPSGTLSLTCAVSGGSISSSNWWSWVRQAPGKGLEWIGEIYHGGSTNFNPSLKSRVTISVDKSKNQFSLNLTSVTAADTAVYYCARYASSSHDFWGQGTLVTVSS
VL: QSVLTQPPSVSAAPGQRVTIYCSGSRSNIVSNYVSWYQQLPGTAPKLLIYDNNKRPSGIPDRFSGSKSGTSATLGITGLQTGDEADYYCGTWDSSLSAYVFGTGTKVAVLG
B5: Clone 10 scFv phage clone (scFv, V domains shown)
VH: QVQLQESGPGLVKPPGTLSLTCAVSGGSISSSNWWSWVRQPPGKGLEWIGEIYHSGSTNYNPSLNSRVIISDDTSKNQFSLTLTSVTAADTAVYYCARYYNSYYDSWGQGTLVTVSS
VL: B4 VL with R17K, Y21S, R26S, V30G, A108T
B6: Clone 8 scFv phage clone (scFv, V domains shown)
VH: QLQLQESGPGLVKPSETLSLTCTVSGDSISGYYWSWIRQPPGKGLEWIGEINHSGSTNYNPSLKSRVTISVDTSKNQFSLKLSSVTAADTAVYYCARYYSGFYSSDGWGQGTLVTVSS
VL: B4 VL with G15R, R17K, Y21S, R26S, V30G, K67R, T91S, A98V, A108T
B7: Clone 2 scFv phage clone (scFv, V domains shown)
VH: QVQLVQSGAEVKKPGSSVKVSCKASGGTFSSYAISWVRQAPGQGLEWMGWISAYNGNTNYAQKLQGRVTMTTDTSTSTAYMELRSLRSDDTAVYYCARKGFYSGFDSWGQGTLVTVSS
VL: B4 VL with R17K, Y21S, R26S, V30G, N53T, T70S, G90E, W92L, A108T
notes: also called phage clone 2
B8: Clone 15 scFv phage clone (scFv, V domains shown)
VH: QVQLQESGPGLVKPSGTLSLTCAVSGGSISSSNWWSWVRQPPGKGLEWIGEIYHSGSTNYNPSLKSRVTISVDKSKNQFSLKLSSVTAADTAVYYCARYPGFVWDLWGQGTLVTVSS
VL: B4 VL with R17K, Y21S, R26S, V30G, T73I, S97T, Y99G, A108T
B9: Clone 9 scFv phage clone (scFv, V domains shown)
VH: B8 VH with S15P, P100E, G101Q, F102G, V103S, W104H, L106S
VL: B4 VL with R17K, Y21S, R26S, V30G, V34I, N53S, S66F, T103S, A108T
B10: Clone 5 scFv phage clone (scFv, V domains shown)
VH: QLQLQESGPGLVKPSGTLSLTCAVSGGSISSSNWWSWVRQPPGKGLEWIGEIYHSGSTNYNPSLKSRVTISVDKSKNQFSLKLSSVTAADTAVYYCARFIYGSSSSQTDTWGQGTLVTVSS
VL: QSVLTQPPSVSAAPGQKVTISCSGSSSNIGSNYIYWYQQFPGTAPKLLIYDDNKRPSGIPDRFSGSRSGTSATLGITGLQTGDEADYYCGTWDSPLVAWVFGGGTKLTVLG
B11: Clone 6 scFv phage clone (scFv, V domains shown)
VH: QVQLQQWGAGLLKPSETLSLTCAVYGGSFSGYYWSWIRQPPGKGLEWIGEINHSGSTNYNPSLKSRVTISVDTSKNQFSLKLSSVTAADTAVYYCARLEGSYYDVWGQGTLVTVSS
VL: QSVLTQPPSVSAAPGQKVTVSCSGTTSDIGSNYVTWYQQLPGTTPKLIIYDNNKRPSGIPDRFSGSKSGTSGTLGITGLQTGDEADYYCGTWDSSLNTFVFGTGTKVTVLG
B12: Clone 14 scFv phage clone (Clone 14 scFv) (scFv)
scFv: QSVLTQPPSVSAAPGQRVTISCSGSTSNIGSNYVSWYQQFPGTAPKLLIYDSDKRISGIPDRFSGSKSGTSATLGITGLQTGDEADYYCGTWDSSLTVGVFGGGTKVTVLGSRGGGGSGGGGSGGGGSLEMAQLQLQESGPGLVKPSGTLSLTCAVSGGSISSSNWWSWVRQPPGKGLEWIGEIYHSGSTNYNPSLKSRVTISVDKSKNQFSLKLSSVTAADTAVYYCARYFGQKYDYWGQGTLVTVSS
B13: Clone 18 scFv phage clone (Clone 18 scFv) (scFv)
scFv: QSVLTQPPSVSVAPGQKVTISCSGSSSNIGNNYVSWYQQLPGTAPKLLIYDNNKRPSGIPDRFSGSKSGTSATLGITGLQTGDEADYYCQSYDVYNMTSVFGGGTKLTVLGSRGGGGSGGGGSGGGGSLEMAQMQLVQSGAEVKKPGSSVKVSCKASGGTFSSYAISWVRQAPGQGLEWMGGIIPIFGTANYAQKFQGRVTITADESTSTAYMELSSLRSDDTAVYYCARGFSSWPGIDQWGQGTLVTVSS
B14: Clone 7 scFv phage clone (Clone 07 scFv) (scFv)
scFv: QSVVTQPPSVSGAPGQRITISCTGSSSNIGAGYDVHWYQQLPGTAPKLLIFGNVNRPSGVPDRFSGSKSGTSASLAITGLQAEDEADYYCQSYDSSLSGWVFGGGTKLTVLGSRGGGGSGGGGSGGGGSLEMAQVQLQQSGAEVKKPGATVKVSCKASGYTFTSYGISWVRQAPGQGLEWMGWISAYNGNTNYAQKLQGRVTMTTDTSTSTAYMELRSLRSDDTAVYYCARMSMSEYIDYWGQGTLVTVSS
B15: Clone 19 scFv phage clone (Clone 19 scFv) (scFv)
scFv: NFMLTQPHSVSESPGKTVTISCVRSSGSVASEFVQWYQQRPGHAPTLVIYNDFQRPSGVPDRFSGSIDKSSNSASLTISGLKAEDEADYYCQSYDQSSSIVFGGGTKLTVLGSRGGGGSGGGGSGGGGSLEMAEVQLVQSGAEVKKPGESLKISCKGSGYSFTTYWIGWVRQMPGKGLEWMGIIYPGDSDTTYSPSFQGQVTISADKSLSIAYLQWSSLKASDTAMYYCARYGGQYFWSDSFDSWGQGTLVTVSS
B16: Clone 11 scFv phage clone (Clone 11 scFv) (scFv)
scFv: NFMLTQPHSVSESPGKTVTISCTRSSGSIASNYVQWYQQRPGSAPTTVIYEDNQRPSGVPDRFSGSIDSSSNSASLTISGLKTEDEADYYCQSYDSSNVVFGGGTKLTVLGSRGGGGSGGGGSGGGGSLEMAQVQLVQSGAEVRKPGASVKVSCKASGYSFTSNGITWVRQAPGQGLEWMGWISGYNANTRYAQEFQARVTMTTDTSASTAYMELRSLRSDDTAVYYCARHAYWGGDSDYWGQGTLVTVSS
B17: Clone 16 scFv phage clone (scFv, V domains shown)
VH: QVQLVQSGAEVKKPGASVKVSCKASGYTFTSYYMHWVRQAPGQGLEWMGIINPSGGSTSYAQKFQGRVTMTRDTSTSTVYMELSSLRSEDTAVYYCARRGWLSWGYYGMDVWGQGTTVTVSS
VL: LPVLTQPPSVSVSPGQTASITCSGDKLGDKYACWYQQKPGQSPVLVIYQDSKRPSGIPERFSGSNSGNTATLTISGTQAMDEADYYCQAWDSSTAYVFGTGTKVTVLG
B18: TCR mimic antibody clone 11 (mIgG1 format) (antibody, V domains shown)
VH: QVQLVQSGAEVRKPGASVKVSCKASGYSFTSNGITWVRQAPGQGLEWMGWISGYNANTRYAQEFQARVTMTTDTSASTAYMELRSLRSDDTAVYYCARHAYWGGDSDYWGQGTLVTVSS
VL: NFMLTQPHSVSESPGKTVTISCTRSSGSIASNYVQWYQQRPGSAPTTVIYEDNQRPSGVPDRFSGSIDSSSNSASLTISGLKTEDEADYYCQSYDSSNVVFGGGTKLTVLG
notes: conjugated to PE for flow cytometry

Changes are numbered by the printed parent chain.

For one assay, the target named is T1, HLA-A*02:01 on T2 cells (human).
T1 construct: whole, on cells; MHC class I molecule of TAP-deficient T2 cells, stabilized by exogenous peptide and detected with BB7.2; also called A*02 protein
As to the kind of experiment: HLA-A*02 stabilization on pulsed T2 cells, BB7.2 staining, flow cytometry. For orientation: A flow cytometer gives signals particle by particle.
Experimental: Flow Cytometry. T2 cells were pulsed overnight with 50 μg/ml of one of the indicated peptides. Pulsed T2 cells were then stained with either BB7.2-PE antibody specific for HLA-A*02 to ensure stabilization of T2 cells with the pulsed peptides or with the labeled TCR mimic antibodies for 30 min on ice as described herein. Cells were washed after incubation with FACS buffer, resuspended in FACS buffer supplemented with DAPI and analyzed using a BD Fortessa™ flow cytometer.
For alanine screening assays, alanine or glycine substituted peptides were purchased from Genemed Synthesis, Inc. (San Antonio, Texas, USA). Besides the unsubstituted sequence of [sequence] […] If in the original peptide sequence the amino acid present was an alanine, the amino acid was changed to glycine. All other amino acids were changed into alanines.
With B1, the binding result is listed as “binds”.

In the next assay the target is T2, NDC80 Peptide A … / HLA-A*02:01 complex (human).
T2 construct: whole, on cells; On peptide-pulsed T2 cells (HLA-A*02:01+); also called NDC80/HLA-A*02:01 complex; NDC80/MHC I
Briefly: FACS, scFv phage on peptide-loaded T2 cells.
Text: 34 human phage scFv libraries were used to pan against NDC80/HLA-A*02:01 complex. In order to avoid the conformational change of MHC I complex introduced by immobilizing the protein complex onto plastic surfaces, cell panning was used in place of conventional plate panning. In cell panning, the human scFv phage libraries were first mixed with T2 cells loaded with control peptides to remove scFv phage clones that bind to T2 cells alone or MHC alone. […] T2 is a TAP-deficient, HLA-A*02:01⁺ lymphoblast cell line that express low amounts of HLA-A*02 on the cell surface and can only present exogenous peptides. […] After extensive washing with PBS, peptide-loaded T2 cells with bound scFv antibody phage were spun down. […] The panning was performed for 3 rounds to enrich scFv phage clones that bound NDC80/HLA-A*02:01 specifically.
As to B2, the binding result is “binds”.
On the same count and under the same terms, the entry for B3 is “binds”; for B4 it is “binds”.
Same read-out and setting: as for B5, the entry is “binds”; as for B6, “binds”; as for B7, “binds”.
Same read-out and setting: the entry for B8 is “binds”; for B9 it is “binds”; for B10 it is “binds”.
Consider B11, for which the binding result is “binds”.
Still for that read-out and setting: the entry for B12 is “binds”.
Regarding B13, the binding result was “binds”.
Same read-out and setting: as for B14, the entry is “binds”.
On to B15, for which the binding result is recorded as “binds”.
As to B16, the binding result is “binds”.
Still for that read-out and setting: as for B17, the entry is “binds”.

A further assay deals with T3, NC3 peptide … / HLA-A*02:01 complex (human).
T3 construct: whole, on cells; On pulsed T2 cells; also pulled down from BV173 lysate (HLA-A*02)
Briefly: FACS, scFv phage on T2 cells loaded with single peptide.
In the case of B3, the binding result is “no binding”.
The same measure, in the same setting: as for B12, the entry is “no binding”.
The same measure, in the same setting: the entry for B13 is “no binding”; for B14 it is “no binding”; for B15 it is “no binding”.
Still for that read-out and setting: the entry for B16 is “no binding”.

The next assay deals with T4, NC4 peptide … / HLA-A*02:01 complex (human).
T4 construct: whole, on cells; On pulsed T2 cells
The description is as above.
As for B3, the binding result was “no binding”.
On the same count and under the same terms, the entry for B12 is “no binding”.
For the molecule B13, the binding result was “no binding”.
As for B14, the binding result is “no binding”.
Same read-out and setting: the entry for B15 is “no binding”; for B16 it is “no binding”.

Another assay has as its target T5, NC1 peptide … / HLA-A*02:01 complex (human).
T5 construct: whole, on cells; On pulsed T2 cells; also pulled down from BV173 lysate (HLA-A*02) and presented on JMN cells
The description is as above.
With B3, the binding result is on record as “no binding”.
Same read-out and setting: the entry for B12 is “no binding”; for B13 it is “no binding”; for B14 it is “no binding”.
As for B15, the binding result is given as “no binding”.
For B16, the binding result was “no binding”.

For a further assay, the target named is T6, NC2 peptide … / HLA-A*02:01 complex (human).
T6 construct: whole, on cells; On pulsed T2 cells; also presented on JMN cells (HLA-A*02)
Described as above.
B3: the binding result is “no binding”.
Turning to B12, the binding result is listed as “no binding”.
Still for that read-out and setting: as for B13, the entry is “no binding”; as for B14, “no binding”; as for B15, “no binding”.
The same measure, in the same setting: the entry for B16 is “no binding”.

A further assay deals with T2, NDC80 Peptide A … / HLA-A*02:01 complex. Briefly: flow cytometry, PE-conjugated antibody on pulsed T2 cells.
Experimental: Pulsed T2 cells were harvested, washed with FACS buffer (PBS, 2% FBS and 0.01% sodium azide) and incubated for 30 min, light-protected, on ice with 2 μg/ml of the labeled antibodies. After incubation, cells were washed again with FACS buffer and resuspended in FACS buffer supplemented with DAPI. For the experiments described in FIGS. 10A-10I, incubation with the TCR mimic antibodies was performed at 2, 10 and 50 μg/ml. Cells were analyzed on an LSRFortessa™ (BD) flow cytometer; the data were analyzed using FlowJo™ v9 software.
For B18, the binding result is on record as “binds”.
